Test results: publication PMC3487758, “Fibrillin-1 Mutations Causing Weill-Marchesani Syndrome and Acromicric and Geleophysic Dysplasias Disrupt Heparan Sulfate Interactions” (PLoS ONE, 2012)

Target: the molecule itself
Test: SEC-MALS; MALLS on each separated gel filtration peak; Wyatt EOS 18-angle light scattering detector, Optilab r-EX refractometer

B1: Fibrillin-1 fragment PF17-1 WMS (Weill-Marchesani syndrome deletion mutant) (domain or fragment)
chain: not shown
notes: human fibrillin-1, fragment PF17-1 (exons 30-43, residues 1238-1807) with the 8 amino acid deletion in TB5 found in patients with WMS; Purifies as a monomer (86%) and a disulfide-linked dimer (14%); the deletion removes Cys 1695; also called WMS mutant
  stoichiometry N: 2
